Measurements from patent US20100028993A1.
Square brackets hold non-standard residues; d marks the D form. Ends that are not written are not given here. Hyp = O=C(O)[C@@H]1C[C@@H](O)CN1

Legend:
[1] = target: growth hormone receptor (GHR) on GHR-expressing NIH 3T3-L1 cells (Mus musculus (Mouse)) (UniProt P16882); test: radioreceptor competition assay; displacement of [125I]-hGH from monolayers of GHR-expressing NIH 3T3-L1 cells
[2] = target: anti-hGH-(SO)10 antibodies (1:10,000 serum dilution); test: competition ELISA; hGH-(SO)10-coated plates, anti-hGH-(SO)10 serum 1:10,000, 100 ug/ml (SO)10 as competitive inhibitor

Sequence of UniProt P16882 (P16882 25-650 limits assumed, form in doubt): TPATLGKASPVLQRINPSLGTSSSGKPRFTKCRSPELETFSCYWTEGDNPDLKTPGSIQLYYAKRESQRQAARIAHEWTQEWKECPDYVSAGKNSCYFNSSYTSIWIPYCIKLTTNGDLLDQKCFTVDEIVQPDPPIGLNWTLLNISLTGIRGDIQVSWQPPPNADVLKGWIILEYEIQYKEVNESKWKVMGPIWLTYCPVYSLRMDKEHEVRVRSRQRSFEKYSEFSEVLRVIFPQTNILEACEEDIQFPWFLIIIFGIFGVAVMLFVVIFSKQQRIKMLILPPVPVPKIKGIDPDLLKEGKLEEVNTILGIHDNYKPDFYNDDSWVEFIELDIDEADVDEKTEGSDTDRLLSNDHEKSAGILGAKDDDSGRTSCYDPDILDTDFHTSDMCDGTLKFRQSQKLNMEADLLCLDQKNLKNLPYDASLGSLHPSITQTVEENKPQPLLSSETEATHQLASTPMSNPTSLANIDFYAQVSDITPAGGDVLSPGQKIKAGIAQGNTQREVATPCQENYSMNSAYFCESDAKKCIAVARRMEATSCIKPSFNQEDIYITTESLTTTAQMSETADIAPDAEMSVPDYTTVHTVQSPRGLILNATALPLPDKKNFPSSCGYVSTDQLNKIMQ

**Q.** For “hGH-(SP)10-EGFP fusion glycoprotein (ligand)”, which EC50 [1] is on record?
**A.** The EC50 was 10 nM.

**Q.** Which percent inhibition [2] does the source give for S[Hyp]S[Hyp]S[Hyp]S[Hyp]S[Hyp]S[Hyp]S[Hyp]S[Hyp]S[Hyp]S[Hyp] (not fully specified) [purified (SP)10 / (SO)10 glycomodule] here?
**A.** The percent inhibition was 5%.
